# Measurements from article PMC12445222.
# Substitutions are numbered along the chain they refer to. Names may count otherwise.
# B1: haloalkane dehalogenase (DhlA) (Xanthobacter autotrophicus) (protein)
# chain: MINAIRTPDQRFSNLDQYPFSPNYLDDLPGYPGLRAHYLDEGNSDAEDVFLCLHGEPTWSYLYRKMIPVFAESGARVIAPDFFGFGKSDKPVDEEDYTFEFHRNFLLALIERLDLRNITLVVQDWGGFLGLTLPMADPSRFKRLIIMNACLMTDPVTQPAFSAFVTQPADGFTAWKYDLVTPSDLRLDQFMKRWAPTLTEAEASAYAAPFPDTSYQAGVRKFPKMVAQRDQACIDISTEAISFWQNDWNGQTFMAIGMKDKLLGPDVMYPMKALINGCPEPLEIADAGHFVQEFGEQVAREALKHFAETE
# B2: haloalkane dehalogenase (DhlA) (Xanthobacter autotrophicus; L262V) (protein)
# chain: B1 chain with L262V
# B3: haloalkane dehalogenase (DhlA) (Xanthobacter autotrophicus; F128L/L262I) (protein)
# chain: B1 chain with F128L, L262I
# B4: haloalkane dehalogenase (DhlA) (Xanthobacter autotrophicus; F128L/L262V) (protein)
# chain: B1 chain with F128L, L262V
# B5: haloalkane dehalogenase (DhlA) (Xanthobacter autotrophicus; F128L) (protein)
# chain: B1 chain with F128L
# What was measured:
# [1] = substrate: ClCCCl; experiment: ITC initial rates, steady-state fit with substrate inhibition; type: biochemical, Xanthobacter autotrophicus; settings: 100 mM glycine buffer, pH 8.6, 15 °C
# [2] = substrate: ClCCCl; experiment: ITC initial rates, steady-state fit; type: biochemical, Xanthobacter autotrophicus; settings: 100 mM glycine buffer, pH 8.6, 15 °C
Protein,Km [1] [µM],kcat [1] [s⁻¹],Km [2] [µM],kcat [2] [s⁻¹]
B1,60 ± 10,0.27 ± 0.01,–,–
B2,250 ± 30,0.25 ± 0.01,–,–
B3,1080 ± 100,0.36 ± 0.02,–,–
B4,–,–,1040 ± 60,0.18 ± 0.01
B5,700 ± 30,0.05 ± 0.01,–,–
